Results published in patent publication US20250382384A1 (BEONE MEDICINES I, published 2025).
Substitutions are numbered along the chain they refer to.

B1: huBG138P-Hz1 (antibody, V domains shown)
VH: QVQLVQSGAEVKKPGASVKVSCKASGYTFTTYTMHWVRQAPGQRLEWMGYINPGSDYTHYNQKFKDRVTITADTSASTAYMELSSLRSEDTAVYYCARQGNYAAYYFDYWGQGTLVTVSS
VL: DIQMTQSPSSLSASVGDRVTITCRASGNIHNFLVWYQQKPGKVPKLLIYNAKTLTSGVPSRFSGSGSGTDYTLTISSLQPEDVATYYCQNFWNVPFTFGQGTKLEIK
notes: humanized; constant regions not restated (IgG1/Ckappa vector used for the first round)
B2: huBG138P-Hz3 (antibody, V domains shown)
VH: B1 VH with R44G, T74K
VL: B1 VL
notes: humanized; constant regions not restated
B3: huBG138P-Hz4 (antibody, V domains shown)
VH: B1 VH with R44G, T74K
VL: B1 VL with V43S, D70Q
notes: as for B2
B4: BG138P-Bz0 (antibody, human IgG1, V domains shown)
VH: B1 VH with V37I, R38K, R44G, M48I, R67K, V68A, I70L, T74K, S84Y
VL: B1 VL with V43S, I48V, S56D, D70Q, T72S, Q100S
notes: human IgG1/Ckappa
B5: BG138P-Hz0 (antibody, human IgG1, V domains shown)
VH: B1 VH with A72R
VL: B1 VL with S56D, Y71F
notes: human IgG1/Ckappa
B6: BG138P-Bz14 (antibody, human IgG1, V domains shown)
VH: B1 VH with V37I, R38K, R44G, M48I, R67K, V68A, I70L, T74K, S84Y
VL: B1 VL with V43S, I48V, S56D, D70Q, Y71F, T72S, Q100S
notes: human IgG1/Ckappa
B7: BG138P-Bz9 (antibody, human IgG1, V domains shown)
VH: B1 VH with V37I, R38K, R44G, M48I, R67K, V68A, I70L, S84Y
VL: B1 VL with V43S, I48V, S56D, D70Q, T72S, Q100S
notes: human IgG1/Ckappa
B8: BG138P-Bz7 (antibody, human IgG1, V domains shown)
VH: B1 VH with V37I, R38K, R44G, M48I, R67K, V68A, T74K, S84Y
VL: B1 VL with V43S, I48V, S56D, D70Q, T72S, Q100S
notes: human IgG1/Ckappa
B9: BG138P-Bz16 (antibody, human IgG1, V domains shown)
VH: B1 VH with V37I, R38K, R44G, M48I, R67K, V68A, I70L, T74K, S84Y
VL: B1 VL with V43S, I48V, S56D, D70Q, T72S
notes: human IgG1/Ckappa
B10: BG138P-Bz3 (antibody, human IgG1, V domains shown)
VH: B1 VH with V37I, R38K, M48I, R67K, V68A, I70L, T74K, S84Y
VL: B1 VL with V43S, I48V, S56D, D70Q, T72S, Q100S
notes: human IgG1/Ckappa
B11: BG138P-Bz10 (antibody, human IgG1, V domains shown)
VH: B1 VH with V37I, R38K, R44G, M48I, R67K, V68A, I70L, T74K
VL: B1 VL with V43S, I48V, S56D, D70Q, T72S, Q100S
notes: human IgG1/Ckappa
B12: BG138P-Bz6 (antibody, human IgG1, V domains shown)
VH: B1 VH with V37I, R38K, R44G, M48I, R67K, I70L, T74K, S84Y
VL: B1 VL with V43S, I48V, S56D, D70Q, T72S, Q100S
notes: human IgG1/Ckappa
B13: BG138P-Bz8 (antibody, human IgG1, V domains shown)
VH: B1 VH with V37I, R38K, R44G, M48I, R67K, V68A, I70L, A72R, T74K, S84Y
VL: B1 VL with V43S, I48V, S56D, D70Q, T72S, Q100S
notes: human IgG1/Ckappa
B14: BG138P-Bz1 (antibody, human IgG1, V domains shown)
VH: B1 VH with R38K, R44G, M48I, R67K, V68A, I70L, T74K, S84Y
VL: B1 VL with V43S, I48V, S56D, D70Q, T72S, Q100S
notes: human IgG1/Ckappa
B15: BG138P-Bz13 (antibody, human IgG1, V domains shown)
VH: B1 VH with V37I, R38K, R44G, M48I, R67K, V68A, I70L, T74K, S84Y
VL: B1 VL with V43S, I48V, S56D, T72S, Q100S
notes: human IgG1/Ckappa
B16: BG138P-Bz5 (antibody, human IgG1, V domains shown)
VH: B1 VH with V37I, R38K, R44G, M48I, V68A, I70L, T74K, S84Y
VL: B1 VL with V43S, I48V, S56D, D70Q, T72S, Q100S
notes: human IgG1/Ckappa
B17: BG138P-Bz4 (antibody, human IgG1, V domains shown)
VH: B1 VH with V37I, R38K, R44G, R67K, V68A, I70L, T74K, S84Y
VL: B1 VL with V43S, I48V, S56D, D70Q, T72S, Q100S
notes: human IgG1/Ckappa
B18: BG138P-Bz2 (antibody, human IgG1, V domains shown)
VH: B1 VH with V37I, R44G, M48I, R67K, V68A, I70L, T74K, S84Y
VL: B1 VL with V43S, I48V, S56D, D70Q, T72S, Q100S
notes: human IgG1/Ckappa
B19: BG138P-Bz12 (antibody, human IgG1, V domains shown)
VH: B1 VH with V37I, R38K, R44G, M48I, R67K, V68A, I70L, T74K, S84Y
VL: B1 VL with V43S, S56D, D70Q, T72S, Q100S
notes: human IgG1/Ckappa
B20: BG138P-Bz15 (antibody, human IgG1, V domains shown)
VH: B1 VH with V37I, R38K, R44G, M48I, R67K, V68A, I70L, T74K, S84Y
VL: B1 VL with V43S, I48V, S56D, D70Q, Q100S
notes: human IgG1/Ckappa
B21: BG138P-Bz11 (antibody, human IgG1, V domains shown)
VH: B1 VH with V37I, R38K, R44G, M48I, R67K, V68A, I70L, T74K, S84Y
VL: B1 VL with I48V, S56D, D70Q, T72S, Q100S
notes: human IgG1/Ckappa

What follows are binders tested against T1, human MUC1 SEA domain protein (human, UniProt P15941 1036-1155) (assay: SPR, antibody captured, huMUC1 SEA analyte).
T1 construct: also called HuMUC1-SEA; huMUC1 SEA
T1 sequence: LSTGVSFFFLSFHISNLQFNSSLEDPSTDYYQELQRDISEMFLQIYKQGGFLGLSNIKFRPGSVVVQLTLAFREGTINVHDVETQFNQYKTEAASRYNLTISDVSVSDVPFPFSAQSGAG

| Binder | Kd [nM] |
| --- | --- |
| B1 | 0.241 |
| B2 | 0.242 |
| B3 | 0.223 |

These binders were tested against T1, human MUC1 SEA domain protein (assay: SPR (Biacore 2000), antibody captured, huMUC1 SEA analyte, 1:1 binding).

| Binder | Kd [nM] |
| --- | --- |
| B4 | 0.464 |
| B5 | 0.527 |
| B6 | 0.608 |
| B7 | 0.476 |
| B8 | 0.407 |
| B9 | 0.466 |
| B10 | 0.532 |
| B11 | 0.448 |
| B12 | 0.518 |
| B13 | 0.608 |
| B14 | 0.503 |
| B15 | 0.453 |
| B16 | 0.475 |
| B17 | 0.488 |
| B18 | 0.453 |
| B19 | 0.501 |
| B20 | 0.493 |
| B21 | 0.513 |
